Measurements from patent US20250262210A1 (TRUSTEES OF COLUMBIA UNIVERSITY IN THE CITY OF NEW YORK, published 2025).

Legend:
Experiment in all cases: IP/MS, LZTR1 wild type-FLAG, U87
TRAPPC11 = target: T1, TRAPPC11 (human, UniProt Q7Z392 1-1133, limits assumed)
T1 sequence (looked up): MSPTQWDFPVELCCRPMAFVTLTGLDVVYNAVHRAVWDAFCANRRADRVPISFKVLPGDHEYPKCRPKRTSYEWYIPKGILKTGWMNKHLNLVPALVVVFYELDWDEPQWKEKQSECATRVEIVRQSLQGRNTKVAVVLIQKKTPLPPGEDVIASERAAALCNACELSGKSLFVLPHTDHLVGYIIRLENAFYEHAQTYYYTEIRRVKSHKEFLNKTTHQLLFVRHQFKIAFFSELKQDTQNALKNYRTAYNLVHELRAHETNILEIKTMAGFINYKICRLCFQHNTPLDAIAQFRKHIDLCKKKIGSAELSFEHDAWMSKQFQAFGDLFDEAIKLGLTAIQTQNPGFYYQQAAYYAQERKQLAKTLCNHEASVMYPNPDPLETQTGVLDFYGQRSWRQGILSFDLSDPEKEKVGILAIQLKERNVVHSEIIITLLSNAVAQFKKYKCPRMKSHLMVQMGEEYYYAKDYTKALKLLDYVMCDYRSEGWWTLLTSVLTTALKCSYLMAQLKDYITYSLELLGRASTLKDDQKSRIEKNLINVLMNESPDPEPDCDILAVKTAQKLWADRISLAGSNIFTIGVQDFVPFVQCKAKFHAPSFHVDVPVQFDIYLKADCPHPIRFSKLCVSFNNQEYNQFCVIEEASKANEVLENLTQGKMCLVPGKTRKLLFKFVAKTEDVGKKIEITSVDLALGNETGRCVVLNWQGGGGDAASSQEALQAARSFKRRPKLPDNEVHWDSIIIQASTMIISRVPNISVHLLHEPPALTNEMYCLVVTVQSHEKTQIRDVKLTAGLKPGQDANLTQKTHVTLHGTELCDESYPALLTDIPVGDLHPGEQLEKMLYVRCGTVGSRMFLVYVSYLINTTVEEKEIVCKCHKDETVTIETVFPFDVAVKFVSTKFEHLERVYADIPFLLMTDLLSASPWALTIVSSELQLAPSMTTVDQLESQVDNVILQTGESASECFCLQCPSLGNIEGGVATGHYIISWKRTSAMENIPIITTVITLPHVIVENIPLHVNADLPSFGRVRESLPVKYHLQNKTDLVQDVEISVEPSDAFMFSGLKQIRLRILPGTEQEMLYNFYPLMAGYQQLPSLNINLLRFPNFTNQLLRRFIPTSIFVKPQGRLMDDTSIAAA
Procedure, shortened: (§1)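 Extracted peptides in 3% acetonitrile/0.1% formic acid ran on a 50 cm C18 column into an Orbitrap Fusion, with MaxQuant identification and spectral counting.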

ARFGEF1 = ARFGEF1 (human, UniProt Q9Y6D6 1-1849)
Procedure, shortened: as §1

KDM5C = KDM5C (human, UniProt P41229 1-1560, limits assumed)
Procedure, shortened: as §1

ANKRD52 = target: T2, ANKRD52 (human, UniProt Q8NB46 1-1076)
T2 sequence (looked up): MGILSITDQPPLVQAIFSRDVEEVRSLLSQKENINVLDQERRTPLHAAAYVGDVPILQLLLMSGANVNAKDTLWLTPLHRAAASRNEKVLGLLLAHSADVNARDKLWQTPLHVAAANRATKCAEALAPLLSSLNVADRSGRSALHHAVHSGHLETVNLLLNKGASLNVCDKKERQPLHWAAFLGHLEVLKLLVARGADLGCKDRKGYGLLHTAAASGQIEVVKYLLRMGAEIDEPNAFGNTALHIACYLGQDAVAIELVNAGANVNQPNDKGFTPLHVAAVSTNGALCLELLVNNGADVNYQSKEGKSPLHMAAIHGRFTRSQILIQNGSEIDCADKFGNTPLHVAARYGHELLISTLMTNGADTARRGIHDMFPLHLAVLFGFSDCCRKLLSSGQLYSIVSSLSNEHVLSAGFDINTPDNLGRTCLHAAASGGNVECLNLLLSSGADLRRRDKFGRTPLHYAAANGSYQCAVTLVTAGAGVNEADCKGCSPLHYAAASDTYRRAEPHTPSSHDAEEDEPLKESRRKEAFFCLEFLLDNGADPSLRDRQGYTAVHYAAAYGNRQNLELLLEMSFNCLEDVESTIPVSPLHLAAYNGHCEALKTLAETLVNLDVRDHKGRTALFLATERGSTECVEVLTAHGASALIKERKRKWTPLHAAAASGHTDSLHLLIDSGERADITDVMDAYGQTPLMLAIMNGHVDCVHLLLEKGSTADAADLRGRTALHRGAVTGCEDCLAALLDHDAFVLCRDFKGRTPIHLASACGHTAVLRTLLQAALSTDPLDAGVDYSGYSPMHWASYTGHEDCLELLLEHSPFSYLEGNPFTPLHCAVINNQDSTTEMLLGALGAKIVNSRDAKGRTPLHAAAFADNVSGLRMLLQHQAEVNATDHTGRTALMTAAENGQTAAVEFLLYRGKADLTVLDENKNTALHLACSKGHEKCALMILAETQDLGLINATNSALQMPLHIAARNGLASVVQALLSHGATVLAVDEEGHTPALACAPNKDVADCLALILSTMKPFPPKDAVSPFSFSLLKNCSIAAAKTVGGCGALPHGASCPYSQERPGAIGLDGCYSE
Procedure, shortened: as §1

Measured: binding result

Sequence of KDM5C (P41229 whole entry): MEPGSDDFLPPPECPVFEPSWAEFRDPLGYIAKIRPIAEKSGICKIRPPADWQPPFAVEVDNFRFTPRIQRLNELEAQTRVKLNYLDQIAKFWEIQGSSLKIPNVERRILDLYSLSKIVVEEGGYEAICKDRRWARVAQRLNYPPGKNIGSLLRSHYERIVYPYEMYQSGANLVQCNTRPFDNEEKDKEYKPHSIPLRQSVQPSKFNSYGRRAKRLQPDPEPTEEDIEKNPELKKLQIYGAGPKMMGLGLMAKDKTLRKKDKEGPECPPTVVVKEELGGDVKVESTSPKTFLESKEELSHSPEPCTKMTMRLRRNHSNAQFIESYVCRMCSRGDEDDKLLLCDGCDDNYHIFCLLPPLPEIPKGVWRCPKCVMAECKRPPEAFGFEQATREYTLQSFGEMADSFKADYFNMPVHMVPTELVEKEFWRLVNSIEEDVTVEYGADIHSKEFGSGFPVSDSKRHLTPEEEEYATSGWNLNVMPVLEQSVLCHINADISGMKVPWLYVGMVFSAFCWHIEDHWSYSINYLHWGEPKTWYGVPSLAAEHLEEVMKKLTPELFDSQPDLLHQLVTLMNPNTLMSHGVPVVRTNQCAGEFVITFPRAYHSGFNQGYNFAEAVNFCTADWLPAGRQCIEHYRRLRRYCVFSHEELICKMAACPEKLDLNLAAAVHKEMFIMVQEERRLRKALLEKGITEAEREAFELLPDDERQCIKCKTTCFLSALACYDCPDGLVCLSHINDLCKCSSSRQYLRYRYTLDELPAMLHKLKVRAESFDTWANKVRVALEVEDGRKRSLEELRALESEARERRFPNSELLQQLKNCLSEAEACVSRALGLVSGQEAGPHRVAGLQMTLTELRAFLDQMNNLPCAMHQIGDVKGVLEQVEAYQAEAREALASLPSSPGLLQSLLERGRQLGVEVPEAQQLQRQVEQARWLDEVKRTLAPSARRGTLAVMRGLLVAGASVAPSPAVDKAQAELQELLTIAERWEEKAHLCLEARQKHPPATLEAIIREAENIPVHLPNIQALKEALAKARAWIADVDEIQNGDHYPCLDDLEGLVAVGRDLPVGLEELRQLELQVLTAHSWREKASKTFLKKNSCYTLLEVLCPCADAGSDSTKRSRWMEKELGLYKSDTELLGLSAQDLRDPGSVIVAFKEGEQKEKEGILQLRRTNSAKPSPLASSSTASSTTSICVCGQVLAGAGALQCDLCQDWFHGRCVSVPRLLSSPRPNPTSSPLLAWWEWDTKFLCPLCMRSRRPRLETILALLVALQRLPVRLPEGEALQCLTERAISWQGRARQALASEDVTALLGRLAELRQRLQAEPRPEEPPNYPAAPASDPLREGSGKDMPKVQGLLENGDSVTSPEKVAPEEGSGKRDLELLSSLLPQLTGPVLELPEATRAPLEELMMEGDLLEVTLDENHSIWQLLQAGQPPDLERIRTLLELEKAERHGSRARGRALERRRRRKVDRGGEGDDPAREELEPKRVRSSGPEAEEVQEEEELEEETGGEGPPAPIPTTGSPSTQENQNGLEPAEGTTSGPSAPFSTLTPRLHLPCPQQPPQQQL
Sequence of ARFGEF1 (Q9Y6D6 whole entry): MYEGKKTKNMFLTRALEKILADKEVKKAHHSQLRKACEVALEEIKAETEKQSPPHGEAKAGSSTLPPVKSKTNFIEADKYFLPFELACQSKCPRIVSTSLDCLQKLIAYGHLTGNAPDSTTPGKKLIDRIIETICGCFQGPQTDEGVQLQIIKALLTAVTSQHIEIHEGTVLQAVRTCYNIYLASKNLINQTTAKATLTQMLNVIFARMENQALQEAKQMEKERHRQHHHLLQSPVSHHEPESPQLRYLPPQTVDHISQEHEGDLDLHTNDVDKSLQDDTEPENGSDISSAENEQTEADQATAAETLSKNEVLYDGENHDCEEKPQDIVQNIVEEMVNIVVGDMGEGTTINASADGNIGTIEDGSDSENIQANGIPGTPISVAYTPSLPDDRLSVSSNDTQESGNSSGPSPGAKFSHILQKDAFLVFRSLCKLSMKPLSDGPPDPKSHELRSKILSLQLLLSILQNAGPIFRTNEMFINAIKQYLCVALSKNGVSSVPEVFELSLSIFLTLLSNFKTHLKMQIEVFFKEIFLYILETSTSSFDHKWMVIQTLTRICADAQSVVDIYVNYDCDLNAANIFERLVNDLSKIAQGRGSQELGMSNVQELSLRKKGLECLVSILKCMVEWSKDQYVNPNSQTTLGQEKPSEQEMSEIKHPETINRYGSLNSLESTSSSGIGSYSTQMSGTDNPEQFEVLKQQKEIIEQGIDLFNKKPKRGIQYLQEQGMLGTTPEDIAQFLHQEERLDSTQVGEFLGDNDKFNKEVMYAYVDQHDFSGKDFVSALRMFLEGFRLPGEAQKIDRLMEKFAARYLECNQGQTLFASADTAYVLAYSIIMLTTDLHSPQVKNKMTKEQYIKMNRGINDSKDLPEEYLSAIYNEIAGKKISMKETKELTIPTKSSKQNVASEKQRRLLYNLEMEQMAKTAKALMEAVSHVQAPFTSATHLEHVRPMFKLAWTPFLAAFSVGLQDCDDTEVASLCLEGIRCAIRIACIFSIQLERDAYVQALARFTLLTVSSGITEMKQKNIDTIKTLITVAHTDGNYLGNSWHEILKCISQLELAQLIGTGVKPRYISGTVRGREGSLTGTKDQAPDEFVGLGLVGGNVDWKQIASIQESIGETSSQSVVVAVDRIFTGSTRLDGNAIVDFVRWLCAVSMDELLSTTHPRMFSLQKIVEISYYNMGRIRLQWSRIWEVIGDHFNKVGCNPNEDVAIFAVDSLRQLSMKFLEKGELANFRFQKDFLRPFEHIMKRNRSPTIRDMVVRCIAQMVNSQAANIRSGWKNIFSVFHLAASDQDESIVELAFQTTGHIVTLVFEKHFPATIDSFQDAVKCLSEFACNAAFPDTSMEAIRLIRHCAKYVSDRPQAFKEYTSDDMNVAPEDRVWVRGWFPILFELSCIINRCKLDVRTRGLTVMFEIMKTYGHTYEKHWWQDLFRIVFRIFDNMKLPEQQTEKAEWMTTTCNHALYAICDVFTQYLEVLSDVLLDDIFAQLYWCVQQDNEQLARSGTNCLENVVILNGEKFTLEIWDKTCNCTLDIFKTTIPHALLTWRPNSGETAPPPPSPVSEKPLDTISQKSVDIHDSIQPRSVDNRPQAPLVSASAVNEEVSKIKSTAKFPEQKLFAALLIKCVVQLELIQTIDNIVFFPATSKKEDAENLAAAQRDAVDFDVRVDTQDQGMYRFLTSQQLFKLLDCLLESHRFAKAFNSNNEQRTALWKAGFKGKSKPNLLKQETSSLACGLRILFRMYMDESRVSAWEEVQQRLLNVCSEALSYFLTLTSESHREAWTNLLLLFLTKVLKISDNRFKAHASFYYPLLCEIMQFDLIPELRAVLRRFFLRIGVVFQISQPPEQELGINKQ

B1: LZTR1-FLAG (other, human, UniProt Q8N653 1-840, looked up)
chain: MAGPGSTGGQIGAAALAGGARSKVAPSVDFDHSCSDSVEYLTLNFGPFETVHRWRRLPPCDEFVGARRSKHTVVAYKDAIYVFGGDNGKTMLNDLLRFDVKDCSWCRAFTTGTPPAPRYHHSAVVYGSSMFVFGGYTGDIYSNSNLKNKNDLFEYKFATGQWTEWKIEGRLPVARSAHGATVYSDKLWIFAGYDGNARLNDMWTIGLQDRELTCWEEVAQSGEIPPSCCNFPVAVCRDKMFVFSGQSGAKITNNLFQFEFKDKTWTRIPTEHLLRGSPPPPQRRYGHTMVAFDRHLYVFGGAADNTLPNELHCYDVDFQTWEVVQPSSDSEVGGAEVPERACASEEVPTLTYEERVGFKKSRDVFGLDFGTTSAKQPTQPASELPSGRLFHAAAVISDAMYIFGGTVDNNIRSGEMYRFQFSCYPKCTLHEDYGRLWESRQFCDVEFVLGEKEECVQGHVAIVTARSRWLRRKITQARERLAQKLEQEAAPVPREAPGVAAGGARPPLLHVAIREAEARPFEVLMQFLYTDKIKYPRKGHVEDVLLIMDVYKLALSFQLCRLEQLCRQYIEASVDLQNVLVVCESAARLQLSQLKEHCLNFVVKESHFNQVIMMKEFERLSSPLIVEIVRRKQQPPPRTPLDQPVDIGTSLIQDMKAYLEGAGAEFCDITLLLDGHPRPAHKAILAARSSYFEAMFRSFMPEDGQVNISIGEMVPSRQAFESMLRYIYYGEVNMPPEDSLYLFAAPYYYGFYNNRLQAYCKQNLEMNVTVQNVLQILEAADKTQALDMKRHCLHIIVHQFTKVSKLPTLRSLSQQLLLDIIDSLASHISDKQCAELGADI
notes: Expressed in HEK 293T, HeLa or U87 cells; used as cell lysate; also called LZTR1 wild type-FLAG; LZTR1 WT; not shown: FLAG tag at the C-terminus
binds: TRAPPC11 | ARFGEF1 | KDM5C | ANKRD52
